System: MS2 coat protein
Assay: apparent KD of MS2 coat protein; designed switch direction (-1 OFF switch, 1 ON switch): -1; higher = weaker reporter binding
Summary of the method: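 Designed RNA switches were transcribed on Illumina chips by stalled E. coli RNA polymerase and titrated with SNAP-549-labelled MS2 coat protein from 0.7 or 1.5 nM, doubling to 3 µM. Step length ran from 0.8–1.5 h at the lowest concentration to 10–20 min at the highest. The apparent KD is the median over clusters for each design, from curve-fitted normalised cluster fluorescence.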

[1] = Eterna round: R95, input ligand: FMN 200 uM
[2] = Eterna round: R95, input ligand: microRNA oligo, concentration not stated
[3] = Eterna round: R95, input ligand: none
[4] = input ligand: microRNA oligo, concentration not stated

Sequence	apparent KD of MS2 coat protein [1] [nM]	apparent KD of MS2 coat protein [2] [nM]	apparent KD of MS2 coat protein [3] [nM]	apparent KD of MS2 coat protein (input ligand: FMN 200 uM) [nM]	apparent KD of MS2 coat protein [4] [nM]	apparent KD of MS2 coat protein (input ligand: none) [nM]
GGUACUAACACGAAAGUGUUAGUACUAUAGGUUUGUGUUACAUGAGGAUCACCCAUGUCCUCAUAAGCUCGUCUUGU [JL-sv3-2.21 mat747 mod] (puzzle: Sensor v3, turn-off variant 2)	455	170	403			
AUCGUGCAGCUUUGCUGUACGAGUACAUGAGGAUCACCCAUGUAGGAUAUGGUACGCUUUGCGUGCUAGAAGGAUAUGAGAUGU [JL ENG3 1.49] (Eterna round: R96, puzzle: Exclusion NG 3)				37.6	32	33
UAUAAUACAUAGGAUAUCGAAAUAAUCAUUUAACGAGAAGGAUGAACAUGAGGAUCACCCAUGUGGUAUCAUGG [Mat - Exclusion 6 - JL Mod - D11] (puzzle: Exclusion 6)	379	328	319			
UUAAUUAAUGUCAGGAUAUCUAGAGCUUCGGCUCUAGAGAAGGGACAUGAGGAUCACCCAUGUCACUCUUAAUU [BmEx4/3-C1] (Eterna round: R97, puzzle: Brourd's mod of Exclusion 4)				21.1		15.1
UGCAGACGAGGAUAUAGAUUUAGAUACAUGAGGAUCACCCAUGUAUAUAUGUAUUUAGAUUUAGAAGGCGUCUGCU [E5/15-A4] (Eterna round: R97, puzzle: Exclusion 5)				240		283
GCACGGAGUGUAGGAUAUCUGUGCGAUUAGCUCAGAGAAGGACACAUGAGGAUCACCCAUGUGUAUCAACACAAUAAUCCGUGC [Eli exng1 - 071] (Eterna round: R96, puzzle: Exclusion NG 1)				14.8	13.1	14.5
UGCUAGUCAGGAUAUACGAACAUGUCAAAAGACGUGAAGGGACAUGAGGAUCACCCAUGUAGAAGGGACUAGCU [salish99_ex2_r3_006] (puzzle: Exclusion 2)	165	25.2	27.1			
GACCUGUGAGGAUAUUAUUAAAGGCCAAGUUAGGCCUUAAUUGAGAAGGCACAUGAGGAUCACCCAUGUUUGAC [Eternabot (L2) Solution 55] (Eterna round: R97, puzzle: Exclusion 4)				90.3		22.3
GGUCGGCGAGGAUAUACAUGAGGAUCACCCAUGUGAUAUAGUGCACGCGUACGUGUACGUAGAAGGCGCUGACG [JL-ex3-3.26 salish99 mod] (puzzle: Exclusion 3)	39.6	11.2	15.1			
UUGAUUCAUUCCUCUAUAAACAUGAGGAUCACCCAUGUAAGUGAGGAUAUAGUUGGAGUUGUAUACUAGAAGGCACUUAGUUUU [JR_ExcNG3_Sub048] (Eterna round: R96, puzzle: Exclusion NG 3)				26	8.29	13
AAUAGUCAAGUUAGGAUAUUGCACCAGUGAUGGACCAAGAAGGAACAUGAGGAUCACCCAUGUGAACUCACGAC [Eternabot (Original) Solution 3] (Eterna round: R97, puzzle: Brourd's mod of Exclusion 4)				344		40.8
UAAGAGUGAGGAUAUACGUCGCUGGUCUGGAUGGACGCAUGACAUGAGGAUCACCCAUGUAGAAGGCACAAAAC [Enxela Mod 11 - Jieux - Exclusion 2] (Eterna round: R97, puzzle: Exclusion 2)				153		35
UUUCUUCAUAUCACAUGAGGAUCACCCAUGUUAUUCAUCGCGUAGGAUAUCGAGAAUUUUAAAUACGAGAAGGACGUAUUGAUA [JR_ExcNG3_Sub072] (Eterna round: R96, puzzle: Exclusion NG 3)				43.4	31.1	38.8
ACCCGCACAAGCACCAGAGACAUGAGGAUCACCCAUGUAUAGUCGCACUAGGGUCUCUCUAGUCUAGCCGUUCGUCA [Eternabot (Original) Solution 44] (Eterna round: R97, puzzle: Sensor, turn-off variant 1)				90.4		213
UAUAUAUAGUAAGGAUAUGUAAUUACUUUAUAAACAGAAGGUACUGACAUGAGGAUCACCCAUGUUUUAGUGUGGGCAUGUAGA [JMF's solution 37] (Eterna round: R96, puzzle: Exclusion NG 1)					70.1	
GUGUGACAUGAGGAUCACCCAUGUGAGGAUAUCAUGCUUCGUAGUAAACUACGAAGUGUGAGAAGGCACAUAAC [Omei Ex1 E8] (Eterna round: R97, puzzle: Exclusion 1)				678		122
UUAGCGUAAGUAAGGAUAUGCUGGUCUAAUGAUCAGCAGAAGGUACAUGAGGAUCACCCAUGUGGAUUCGUUAU [Mod of JL 10 - Jieux - Brourd's mod of Exclusion 4] (Eterna round: R97, puzzle: Brourd's mod of Exclusion 4)				35.8		19.2
AUCGUGUGAGGAUAUCGAUCAUGGAGGUCUAGGUCUAUGCGCGAGAAGGCACAUGAGGAUCACCCAUGUAAUGG [jl-ex4-4.29 ViennaUCT mod] (Eterna round: R97, puzzle: Exclusion 4)				59.9		636
CAGUACUGAGGAUAUACAUGAGGAUCACCCAUGUGGUCCAGCUAGGAAACUAGCACGUGUAGAAGGCAGUACUG [Ex3: 840] (Eterna round: R96, puzzle: Exclusion 3)				58.3	55.3	45.7
GUCGUGCGGCAGUGCUGUACGAGUACAUGAGGAUCACCCAUGUAGGAUAUGGUUCGUUUUGCGUGCUAGAAGGGCGUGCGUUUU [Excl-NG3-LRO18] (Eterna round: R96, puzzle: Exclusion NG 3)				18	15.8	24.8
UUUAUGUAAGGAUAUAUGGGUUUAAAUGAAAAUUUGGGCCCAUAGAAGGUACAUGAGGAUCACCCAUGUAGUGG [-24.4, -24.3 kcal, 32% A] (Eterna round: R97, puzzle: Exclusion 4)				474		641
CGUCAGUGAGGAUAUGGUAACAUUUACAUGAGGAUCACCCAUGUUUCAUGGGACUAAAGACUAGAAGGCACUGACG [JR_Ex5_Sub031] (Eterna round: R97, puzzle: Exclusion 5)				80.9		36.9
GAUUAUGCGAGCUUUAGGGACAUGAGGAUCACCCAUGUUCGUCUUAUUAAUCUAGGUACACUGACAUACCUAAAUCU [JMF 64] (puzzle: Sensor v3, turn-off variant 1)	21.3	30.5	21			
CAGCCUCAGGUUAGGAUAUACGCGUGGCCGAAGGAGUAGAAGGGACAUGAGGAUCACCCAUGUGGGUUCAAAUG [Onsoisgeso] (puzzle: Brourd's mod of Exclusion 4)	292	151	270			

— the supplement of paper PMC9170038
